We go through one molecule from article PMC11019291.

The data set has as its target SARS-CoV-2 nucleocapsid protein (N protein) (SARS-CoV-2, UniProt P0DTC9). The experiment in a line: SERS (surface-immobilized aptamer). To be noted: protein: recombinant; tags: C-terminal His6 (pET26); N-terminal PelB signal and vector residues.

Take AAAAACGCGCGTATTCCTTAGGGGCACCGCTACACGCGCG (ssDNA, 5'-thiol) [anti-N DNA aptamer]: the binding result was “binds”.
